T1: human CX3CR1 (human, UniProt P49238 1-355)
T1 construct: overexpressed on CHO, BA/F3 or HEK293T cells; also called huCX3CR1; hCX3CR1
T1 sequence: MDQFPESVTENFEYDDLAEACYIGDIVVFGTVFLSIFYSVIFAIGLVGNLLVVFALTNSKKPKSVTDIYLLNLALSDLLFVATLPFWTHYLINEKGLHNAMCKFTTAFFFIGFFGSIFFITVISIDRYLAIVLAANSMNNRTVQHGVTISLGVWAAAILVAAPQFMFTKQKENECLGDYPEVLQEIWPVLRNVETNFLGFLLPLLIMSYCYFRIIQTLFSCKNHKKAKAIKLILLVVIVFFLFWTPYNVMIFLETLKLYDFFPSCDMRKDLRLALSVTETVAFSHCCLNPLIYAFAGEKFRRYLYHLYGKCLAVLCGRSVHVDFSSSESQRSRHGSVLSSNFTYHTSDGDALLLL


Assays:
human CX3CR1 [1] = target: T1, human CX3CR1; experiment: periplasmic extract, A647-fractalkine competition FACS, CHO-huCX3CR1
From the text: Periplasmic extracts were screened in a human CX3CR1/human Fractalkine FACS competition assay to assess the blocking capacity of the expressed VHHs. Human CX3CR1 was presented on CHO cells overexpressing CX3CR1. Both a setup using cells harvested from an actively growing culture and a setup using frozen cells was used. As a detection reagent labeled fractalkine was used (R&D Systems, Minneapolis, Minn., USA) labeled with alexa647 (A647-Fractalkine) at a degree of labeling of 1. To setup the assay, first a titration series of the labeled fractalkine was performed on the CHO-huCX3CR1 cells in order to determine the EC50 value for binding. Initially screening was performed at a higher concentration of fractalkine (3 nM) to increase the assay robustness. To increase the sensitivity of the screening to a maximum, the EC30 concentration (1 nM) was chosen for subsequent screening. In brief 50 μl of periplasmic extract was added to 6 nM labeled fractalkine (50 μ;) and 200 000 CHO-huCX3CR1 cells. After one hour incubation at 4 C, cells were washed three times before read out was performed on a FACS Array (Becton Dickinson). First a gate was set on the intact cells as determined from the scatter profile. Next, dead cells were gated out by their fluorescence profile from the PI stain (Sigma, St Louis, US). The fluorescence profile from the alexa647 label was determined for each sample and used for calculation of blocking capacity. As controls, conditions were taken along where there was no VHH present in the peri extract or a known irrelevant VHH and samples were included where excess cold fractalkine was included. For each sample the percentage block was determined using the control samples to determine the assay window.

human CX3CR1 [2] = target: T1, human CX3CR1; experiment: fractalkine competition FACS

Binder | % block (human CX3CR1 [1]) [%] | % block (human CX3CR1 [2]) [%] | IC50 (human CX3CR1 [2]) [nM]
CX3CR1BIIPMP61C9 (VHH, tested as periplasmic extract; not shown: C-terminal c-myc and His6 tags) VHH: EVQLVKSGGGSVQAGESLRLSCAASGSIFSSNAMAWYRQALGKQRDLVALIDSAGITKYADSVKGRFTISRDNAKNTVYLQMNRLKPEDTAVYYCASDARRGWNTKYWGQGTLVTVSS | 69.4 | – | –
C100CX3CR1BII043 (VHH, 66B02 with A14P, A74S, K83R, Q108L; not shown: myc/His tag) VHH: EVQLVESGGGSVQPGESLRLSCAASGSIFSSNAMAWYRQAPGKRRDLVAAINSVGVTKYADSVKGRFTISRDNSKNTVYLQMNSLRPEDTAVYYCTSDPRRGWDTRYWGQGTLVTVSS | – | 101 | 2.2
C100CX3CR1BII047 (VHH, 66B02 with S11L, A14P, A74S, K83R, Q108L; not shown: myc/His tag) VHH: EVQLVESGGGLVQPGESLRLSCAASGSIFSSNAMAWYRQAPGKRRDLVAAINSVGVTKYADSVKGRFTISRDNSKNTVYLQMNSLRPEDTAVYYCTSDPRRGWDTRYWGQGTLVTVSS | – | 101 | 2.3
C100CX3CR1BII056 (VHH, 66B02 with S11L, A14P, E16G, R44Q, A74S, K83R, Q108L; not shown: myc/His tag) VHH: EVQLVESGGGLVQPGGSLRLSCAASGSIFSSNAMAWYRQAPGKQRDLVAAINSVGVTKYADSVKGRFTISRDNSKNTVYLQMNSLRPEDTAVYYCTSDPRRGWDTRYWGQGTLVTVSS | – | 101 | 16
C100CX3CR1BII045 (VHH, 66B02 with E1D, A14P, A74S, K83R, Q108L; not shown: myc/His tag) VHH: DVQLVESGGGSVQPGESLRLSCAASGSIFSSNAMAWYRQAPGKRRDLVAAINSVGVTKYADSVKGRFTISRDNSKNTVYLQMNSLRPEDTAVYYCTSDPRRGWDTRYWGQGTLVTVSS | – | 101 | 2.2
CX3CR1BIIPMP61A11 (VHH, tested as periplasmic extract; not shown: C-terminal c-myc and His6 tags) VHH: EVQLVESRGGSVQAGESLRLSCAASGSIFSSNAMAWYRQAPGKQRDLVAVINSVGITKYADSVKGRFTISGDNAKNTVYLQMNSLKPEDTAVYYCTSDARRGWDTRYWGQGTQVTVSS | 78 | – | –
CX3CR1BIIPMP54F6 (VHH, tested as periplasmic extract; not shown: C-terminal c-myc and His6 tags) VHH: KVQLVESGGGSVQAGESLRLSCAASGSIFSSNAMAWYRQAPGKQRDLVAAINSVGITKYADSVKGRFTISRDNAKNTVYLQMNSLKPEDTAVYYCTSDPRRGWDTRYWGQGTLVTVSS | 96.6 | – | –
C100CX3CR1BII049 (VHH, 66B02 with A14P, R44Q, A74S, K83R, Q108L; not shown: myc/His tag) VHH: EVQLVESGGGSVQPGESLRLSCAASGSIFSSNAMAWYRQAPGKQRDLVAAINSVGVTKYADSVKGRFTISRDNSKNTVYLQMNSLRPEDTAVYYCTSDPRRGWDTRYWGQGTLVTVSS | – | 101 | 18
CX3CR1BIIPMP61G2 (VHH, tested as periplasmic extract; not shown: C-terminal c-myc and His6 tags) VHH: EVQLVKSGGGSVQAGESLRLSCAASGSIFSSNAMAWYRQAPGKQRDLVALINSVGITKYADSVKGRFTISRDNAKNTVYLQMNSLKPEDTAVYYCTSDPRRGWDTRYWGQGTQVTVSS | 82 | – | –
CX3CR1BIIPMP54A3 (VHH, tested as periplasmic extract; not shown: C-terminal c-myc and His6 tags) VHH: EVQLVESGGGSVQAGESLRLSCAASGSIFSSNAMAWYRQAPGKQRDLVAGINSVGITKYADSVKGRFTISRDNAKNTVYLQMNSLKPEDTAVYYCTSDPRRGWDTRYWGQGTQVTVSS | 90.8 | – | –
CX3CR1BIIPMP61D1 (VHH, tested as periplasmic extract; not shown: C-terminal c-myc and His6 tags) VHH: EVQLVESGGGSVQAGESLRLSCAASGSIFSSNAMAWYRQAFGKQRDLVALINSVGITKYADSVKGRFTISRDNAKNTVYLQMNSLKPEDTAVYYCTSDPRRGWDTRYWGQGTQVTVSS | 68.4 | – | –
C100CX3CR1BII048 (VHH, 66B02 with A14P, E16G, A74S, K83R, Q108L; not shown: myc/His tag) VHH: EVQLVESGGGSVQPGGSLRLSCAASGSIFSSNAMAWYRQAPGKRRDLVAAINSVGVTKYADSVKGRFTISRDNSKNTVYLQMNSLRPEDTAVYYCTSDPRRGWDTRYWGQGTLVTVSS | – | 101 | 1.9
CX3CR1BIIPMP54H4 (VHH, tested as periplasmic extract; not shown: C-terminal c-myc and His6 tags) VHH: EVQLVESGGGSVQAGESLRLSCAASGSIFSSNAMAWYRQAPGKQRDLVAVINSVGITKYADSVKGRFTISGDNAKNTVYLQMNSLKPEDTAVYYCTSDARRGWDTRYWGQGTLVTVSS | 96 | – | –
CX3CR1BIIPMP61F4 (VHH, tested as periplasmic extract; not shown: C-terminal c-myc and His6 tags) VHH: EVQLVESGGGSVQAGASLRLSCAASGSIFSSNAMAWYRQAPGKQRDLVAVINTVGITKYADSVKGRFTISRDNAKNTVYLQMNSLKPEDTAVYYCTSDARRGWDTRYWGQGTLVTVSS | 94.4 | – | –
C100CX3CR1BII060 (VHH, 66B02 with S11L, A14P, E16G, R44Q, D46E, A74S, K83R, Q108L; not shown: myc/His tag) VHH: EVQLVESGGGLVQPGGSLRLSCAASGSIFSSNAMAWYRQAPGKQRELVAAINSVGVTKYADSVKGRFTISRDNSKNTVYLQMNSLRPEDTAVYYCTSDPRRGWDTRYWGQGTLVTVSS | – | 98.4 | 190
CX3CR1BIIPMP54B2 (VHH, tested as periplasmic extract; not shown: C-terminal c-myc and His6 tags) VHH: EVQLVESGGGSVQAGESLRLSCAASGTIFSSNAMAWYRQAPGKQRDLVAGINSVDITKYADSVKGRFTISRDNAKNTVYLQMNSLKPEDTAVYYCTSDPRRGWNTRYWGQGTLVTVSS | 65.3 | – | –
CX3CR1BIIPMP61D5 (VHH, tested as periplasmic extract; not shown: C-terminal c-myc and His6 tags) VHH: KVQLVESGGGSVQAGESLRLSCAASGSIFSSNAMAWYRQAFGKQRDLVALINSVGITKYADSVKGRFTISRDNAKNTVYLQMNSLKPEDTAVYYCTSDPRRGWDTRYWGQGTQVTVSS | 94.9 | – | –
C100CX3CR1BII057 (VHH, 66B02 with S11L, A14P, E16G, D46E, A74S, K83R, Q108L; not shown: myc/His tag) VHH: EVQLVESGGGLVQPGGSLRLSCAASGSIFSSNAMAWYRQAPGKRRELVAAINSVGVTKYADSVKGRFTISRDNSKNTVYLQMNSLRPEDTAVYYCTSDPRRGWDTRYWGQGTLVTVSS | – | 99.4 | 14
CX3CR1BIIPMP54B1 (VHH, tested as periplasmic extract; not shown: C-terminal c-myc and His6 tags) VHH: EVQLVESGGGSVQAGESLRLSCAASGSIFSSNAMAWYRQAPGKQRDLVAGINSVGITKYADSVKGRFTISRDNAKNTAYLQMNSLKPEDTAVYYCTSDPRRGWDTRYWGQGTQVTVSS | 92.1 | – | –
C100CX3CR1BII050 (VHH, 66B02 with A14P, D46E, A74S, K83R, Q108L; not shown: myc/His tag) VHH: EVQLVESGGGSVQPGESLRLSCAASGSIFSSNAMAWYRQAPGKRRELVAAINSVGVTKYADSVKGRFTISRDNSKNTVYLQMNSLRPEDTAVYYCTSDPRRGWDTRYWGQGTLVTVSS | – | 101 | 17
CX3CR1BIIPMP54A5 (VHH, tested as periplasmic extract; not shown: C-terminal c-myc and His6 tags) VHH: EVQLVESGGGSVQAGESLRLSCAASGSIFSSNAMAWYRQAPGKQRDLVAGINSVGITKYADSVKGRFTISRDNAKNTVYLQMNSLKPEDTAVYYCTSDPRRGWDTRYWGQGTLVTVSS | 92.5 | – | –
CX3CR1BIIPMP54B5 (VHH, tested as periplasmic extract; also called CX3CR1BII54B5; not shown: C-terminal c-myc and His6 tags) VHH: EVQLVESGGGSVQAGESLRLSCAASGSIFSSNAMAWYRQAPGKQRDLVAGINSVGITKYADSVKGRFTISRDNAKNTAYLQMNSLKPEDTAVYYCTSDPRRGWDTRYWGQGTLVTVSS | 92.6 | – | –
CX3CR1BIIPMP61F10 (VHH, tested as periplasmic extract; not shown: C-terminal c-myc and His6 tags) VHH: KVQLVESGGGSVQAGESLRLSCAASGTIFSSNAMAWYRQAPGKQRDLVAGINSVDITKYADSVKGRFTISRDNAKNTVYLQMNSLKPEDTAVYYCTSDPRRGWNTRYWGQGTQVTVSS | 73.5 | – | –

From patent publication US20130224224A1 (Boehringer Ingelheim, published 2013)
